Source: patent publication US20120058906A1

Experiments:
[1] = target: Recombinant Human DLL4 (R&D Systems Cat#1506-D4/CF) (human) (UniProt Q9NR61); assay: MSD ECL multi-spot plate; Fab 98.1 nM; blank spot 210
[2] = target: rHuman EGF R/Fc Chimera, CF (R&D Systems Cat#344-ER) (human) (UniProt P00533); assay: as above
[3] = target: rHuman Notch-1/Fc Chimera, CF (R&D Systems Cat#3647-TK) (human) (UniProt P46531); assay: as above
[4] = target: Recombinant Human DLL4 (R&D Systems Cat#1506-D4/CF) (human) (UniProt Q9NR61); assay: MSD ECL multi-spot plate; Fab 1570 nM; blank spot 866
[5] = target: rHuman EGF R/Fc Chimera, CF (R&D Systems Cat#344-ER) (human) (UniProt P00533); assay: as above
[6] = target: rHuman Notch-1/Fc Chimera, CF (R&D Systems Cat#3647-TK) (human) (UniProt P46531); assay: as above
[7] = target: Recombinant Human DLL4 (R&D Systems Cat#1506-D4/CF) (human) (UniProt Q9NR61); assay: MSD ECL multi-spot plate; Fab 392.5 nM; blank spot 338
[8] = target: rHuman EGF R/Fc Chimera, CF (R&D Systems Cat#344-ER) (human) (UniProt P00533); assay: as above
[9] = target: rHuman Notch-1/Fc Chimera, CF (R&D Systems Cat#3647-TK) (human) (UniProt P46531); assay: as above
[10] = target: Recombinant Human DLL4 (R&D Systems Cat#1506-D4/CF) (human) (UniProt Q9NR61); assay: MSD ECL multi-spot plate; Fab […]; blank spot 149
[11] = target: rHuman EGF R/Fc Chimera, CF (R&D Systems Cat#344-ER) (human) (UniProt P00533); assay: MSD ECL multi-spot plate; Fab […]; blank spot 149
[12] = target: rHuman Notch-1/Fc Chimera, CF (R&D Systems Cat#3647-TK) (human) (UniProt P46531); assay: MSD ECL multi-spot plate; Fab […]; blank spot 149
[13] = target: rHuman P-Cadherin/Fc Chimera, CF (R&D Systems Cat#861-PC) (human) (UniProt P22223); assay: ECL (MSD multi-spot), antigen spotted on plate; Fab 8 nM; blank 1188
[14] = target: rHuman Erythropoietin R/Fc Chimera, CF (R&D Systems Cat#963-ER) (human) (UniProt P19235); assay: as above
Chain of rHuman Erythropoietin R/Fc Chimera, CF (R&D Systems Cat#963-ER) (human) (P19235 25-250, change not shown): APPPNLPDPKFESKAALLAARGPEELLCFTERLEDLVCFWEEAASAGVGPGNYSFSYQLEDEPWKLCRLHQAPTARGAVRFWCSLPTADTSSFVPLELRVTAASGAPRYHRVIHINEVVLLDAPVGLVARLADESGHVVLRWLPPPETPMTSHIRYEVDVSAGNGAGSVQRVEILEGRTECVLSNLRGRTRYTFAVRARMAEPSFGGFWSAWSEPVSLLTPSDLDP

[15] = target: rHuman CD44/Fc Chimera, CF (R&D Systems Cat#3660-CD) (human) (UniProt P16070); assay: as above
[16] = target: rHuman Notch-1/Fc Chimera, CF (R&D Systems Cat#3647-TK) (human) (UniProt P46531); assay: as above
[17] = target: rHuman ErbB2/Fc Chimera, CF (R&D Systems Cat#1129-ER) (human) (UniProt P04626); assay: as above
[18] = target: rHuman P-Cadherin/Fc Chimera, CF (R&D Systems Cat#861-PC) (human) (UniProt P22223); assay: ECL (MSD multi-spot), antigen spotted on plate; Fab […]; blank 428
[19] = target: rHuman Erythropoietin R/Fc Chimera, CF (R&D Systems Cat#963-ER) (human) (UniProt P19235); assay: as above
[20] = target: rHuman CD44/Fc Chimera, CF (R&D Systems Cat#3660-CD) (human) (UniProt P16070); assay: as above
[21] = target: rHuman Notch-1/Fc Chimera, CF (R&D Systems Cat#3647-TK) (human) (UniProt P46531); assay: as above
[22] = target: rHuman ErbB2/Fc Chimera, CF (R&D Systems Cat#1129-ER) (human) (UniProt P04626); assay: as above
[23] = target: rHuman P-Cadherin/Fc Chimera, CF (R&D Systems Cat#861-PC) (human) (UniProt P22223); assay: ECL (MSD multi-spot), antigen spotted on plate; Fab 200 nM; blank 1659
[24] = target: rHuman Erythropoietin R/Fc Chimera, CF (R&D Systems Cat#963-ER) (human) (UniProt P19235); assay: as above
[25] = target: rHuman CD44/Fc Chimera, CF (R&D Systems Cat#3660-CD) (human) (UniProt P16070); assay: as above
[26] = target: rHuman Notch-1/Fc Chimera, CF (R&D Systems Cat#3647-TK) (human) (UniProt P46531); assay: as above
[27] = target: rHuman ErbB2/Fc Chimera, CF (R&D Systems Cat#1129-ER) (human) (UniProt P04626); assay: as above
[28] = target: rHuman P-Cadherin/Fc Chimera, CF (R&D Systems Cat#861-PC) (human) (UniProt P22223); assay: ECL (MSD multi-spot), antigen spotted on plate; Fab 1.6 nM; blank 648
[29] = target: rHuman Erythropoietin R/Fc Chimera, CF (R&D Systems Cat#963-ER) (human) (UniProt P19235); assay: as above
[30] = target: rHuman CD44/Fc Chimera, CF (R&D Systems Cat#3660-CD) (human) (UniProt P16070); assay: as above
[31] = target: rHuman Notch-1/Fc Chimera, CF (R&D Systems Cat#3647-TK) (human) (UniProt P46531); assay: as above
[32] = target: rHuman ErbB2/Fc Chimera, CF (R&D Systems Cat#1129-ER) (human) (UniProt P04626); assay: as above
[33] = target: rHuman P-Cadherin/Fc Chimera, CF (R&D Systems Cat#861-PC) (human) (UniProt P22223); assay: ECL (MSD multi-spot), antigen spotted on plate; Fab 40 nM; blank 1229
[34] = target: rHuman Erythropoietin R/Fc Chimera, CF (R&D Systems Cat#963-ER) (human) (UniProt P19235); assay: as above
[35] = target: rHuman CD44/Fc Chimera, CF (R&D Systems Cat#3660-CD) (human) (UniProt P16070); assay: as above
[36] = target: rHuman Notch-1/Fc Chimera, CF (R&D Systems Cat#3647-TK) (human) (UniProt P46531); assay: as above
[37] = target: rHuman ErbB2/Fc Chimera, CF (R&D Systems Cat#1129-ER) (human) (UniProt P04626); assay: as above
[38] = target: rHuman P-Cadherin/Fc Chimera, CF (R&D Systems Cat#861-PC) (human) (UniProt P22223); assay: ECL (MSD multi-spot), antigen spotted on plate; Fab 1000 nM; blank 2142
[39] = target: rHuman Erythropoietin R/Fc Chimera, CF (R&D Systems Cat#963-ER) (human) (UniProt P19235); assay: as above
[40] = target: rHuman CD44/Fc Chimera, CF (R&D Systems Cat#3660-CD) (human) (UniProt P16070); assay: as above
[41] = target: rHuman Notch-1/Fc Chimera, CF (R&D Systems Cat#3647-TK) (human) (UniProt P46531); assay: as above
[42] = target: rHuman ErbB2/Fc Chimera, CF (R&D Systems Cat#1129-ER) (human) (UniProt P04626); assay: as above
[43] = target: rHuman P-Cadherin/Fc Chimera, CF (R&D Systems Cat#861-PC) (human) (UniProt P22223); assay: ECL (MSD multi-spot), Fab 232.5 nM; blank 460
[44] = target: rHuman IGF-1 sR (IGF-1 sR), CF (R&D Systems Cat#391-GR) (human) (UniProt P08069); assay: ECL (MSD multi-spot), Fab 232.5 nM; blank 460
[45] = target: rHuman EGF R/Fc Chimera, CF (R&D Systems Cat#344-ER) (human) (UniProt P00533); assay: ECL (MSD multi-spot), Fab 232.5 nM; blank 460
[46] = target: rHuman P-Cadherin/Fc Chimera, CF (R&D Systems Cat#861-PC) (human) (UniProt P22223); assay: ECL (MSD multi-spot), Fab 58.1 nM; blank 225
[47] = target: rHuman IGF-1 sR (IGF-1 sR), CF (R&D Systems Cat#391-GR) (human) (UniProt P08069); assay: ECL (MSD multi-spot), Fab 58.1 nM; blank 225
[48] = target: rHuman EGF R/Fc Chimera, CF (R&D Systems Cat#344-ER) (human) (UniProt P00533); assay: ECL (MSD multi-spot), Fab 58.1 nM; blank 225
[49] = target: rHuman P-Cadherin/Fc Chimera, CF (R&D Systems Cat#861-PC) (human) (UniProt P22223); assay: ECL (MSD multi-spot), Fab 14.5 nM; blank 117
[50] = target: rHuman IGF-1 sR (IGF-1 sR), CF (R&D Systems Cat#391-GR) (human) (UniProt P08069); assay: ECL (MSD multi-spot), Fab 14.5 nM; blank 117
[51] = target: rHuman EGF R/Fc Chimera, CF (R&D Systems Cat#344-ER) (human) (UniProt P00533); assay: ECL (MSD multi-spot), Fab 14.5 nM; blank 117
[52] = target: rHuman P-Cadherin/Fc Chimera, CF (R&D Systems Cat#861-PC) (human) (UniProt P22223); assay: ECL (MSD multi-spot), Fab 930 nM; blank 1206
[53] = target: rHuman IGF-1 sR (IGF-1 sR), CF (R&D Systems Cat#391-GR) (human) (UniProt P08069); assay: ECL (MSD multi-spot), Fab 930 nM; blank 1206
[54] = target: rHuman EGF R/Fc Chimera, CF (R&D Systems Cat#344-ER) (human) (UniProt P00533); assay: ECL (MSD multi-spot), Fab 930 nM; blank 1206

Fab VH1-46_IGHD3-10*01_IGHJ4*01 & O1_IGKJ1*01
ECL signal [1]: 402 ECL signal | ECL signal [2]: 4390 ECL signal | ECL signal [3]: 313 ECL signal | ECL signal [4]: 2700 ECL signal | ECL signal [5]: 2480 ECL signal | ECL signal [6]: 1640 ECL signal | ECL signal [7]: 735 ECL signal | ECL signal [8]: 744 ECL signal | ECL signal [9]: 749 ECL signal | ECL signal [10]: 339 ECL signal | ECL signal [11]: 317 ECL signal | ECL signal [12]: 434 ECL signal

Fab VH1-46_IGHD6-6*01_IGHJ1*01_S104A & L6_IGKJ1*01
ECL signal [13]: 1920 | ECL signal [14]: 1980 | ECL signal [15]: 1490 | ECL signal [16]: 2200 | ECL signal [17]: 1900 | ECL signal [18]: 649 | ECL signal [19]: 739 | ECL signal [20]: 684 | ECL signal [21]: 739 | ECL signal [22]: 766 | ECL signal [23]: 3990 | ECL signal [24]: 4000 | ECL signal [25]: 3190 | ECL signal [26]: 5700 | ECL signal [27]: 4040 | ECL signal [28]: 1140 | ECL signal [29]: 1120 | ECL signal [30]: 1020 | ECL signal [31]: 1170 | ECL signal [32]: 1170 | ECL signal [33]: 2600 | ECL signal [34]: 3510 | ECL signal [35]: 2680 | ECL signal [36]: 3480 | ECL signal [37]: 2230 | ECL signal [38]: 5630 | ECL signal [39]: 8290 | ECL signal [40]: 4730 | ECL signal [41]: 8060 | ECL signal [42]: 7420

Fab VH1-46_IGHD6-13*01_IGHJ4*01 & O1_IGKJ1*01
ECL signal [43]: 655 ECL signal | ECL signal [44]: 569 ECL signal | ECL signal [45]: 803 ECL signal | ECL signal [46]: 478 ECL signal | ECL signal [47]: 343 ECL signal | ECL signal [48]: 444 ECL signal | ECL signal [49]: 277 ECL signal | ECL signal [50]: 234 ECL signal | ECL signal [51]: 357 ECL signal | ECL signal [52]: 2440 ECL signal | ECL signal [53]: 1920 ECL signal | ECL signal [54]: 3110 ECL signal
